Broadly, the EC50 is the concentration needed to bring the measured effect to its halfway point. High values mean a less potent agent, low ones a more potent agent.

Positions count from the first letter of the chain named.

The target in one assay is T1, human CCR3 (human, UniProt P51677 1-355).
T1 construct: whole, on cells; transiently expressed on HEK293 cells
T1 sequence (looked up): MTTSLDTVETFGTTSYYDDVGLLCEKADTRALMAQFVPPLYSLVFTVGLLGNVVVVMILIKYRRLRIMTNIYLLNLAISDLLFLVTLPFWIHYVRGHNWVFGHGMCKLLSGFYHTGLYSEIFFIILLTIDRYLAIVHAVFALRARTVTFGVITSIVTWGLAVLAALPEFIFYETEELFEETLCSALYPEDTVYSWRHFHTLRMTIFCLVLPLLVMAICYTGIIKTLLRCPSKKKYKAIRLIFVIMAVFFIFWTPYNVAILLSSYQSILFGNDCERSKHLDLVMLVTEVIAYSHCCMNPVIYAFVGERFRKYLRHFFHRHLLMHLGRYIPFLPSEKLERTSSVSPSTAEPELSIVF
The assay can be described thus: flow cytometry, HEK293 with N-term FLAG-tagged human CCR3. From the text:
(§1) FIGS. 4A-4F depicts the binding data of hu.Ab3.H1L1 (FIG. 4A), hu.Ab4.H1L1 (FIG. 4B), and hu.Ab5.H1L1 (FIG. 4C), as well as the commercial anti-CCR8 mAbs murine anti-human CCR8 mAb 433H (BD Biosciences) (FIG. 4D), and murine anti-human CCR8 mAb L263G8 (Biolegend) (FIG. 4E), and the humanized anti-human Yoshida anti-CCR8 mAb (FIG. 4F), to HEK293 cells that were transiently transfected with N-term FLAG-tagged plasmids encoding for human GPCRs (CCR2, CCR3, CCR4, CCR5, CCR8, CXCR4, ACKR2, and ACKR4), hCCR8 constructs, or with a mock construct using transIT X2 (reagent:DNA=3:1).
(§2) To confirm the selectivity to CCR8, the binding of hu.Ab3.H1L1, hu.Ab4.H1L1, and hu.Ab5.H1L1, as well as the Yoshida humanized anti-human CCR8, murine anti-human CCR8 mAb L263G8 (Biolegend, Commercial Ab) and murine anti-human CCR8 mAb 433H (BD Biosciences, Commercial Ab), were characterized by flow cytometry on HEK293 cells that were transiently transfected with plasmids encoding for FLAG-tagged other related human GPCRs (CCR2-5, CXCR4, ACKR2, and ACKR4). Cell surface expression of each GPCR was confirmed by staining with an anti-FLAG antibody control. […]
On the technique in general: In flow cytometry, cells or beads pass a laser one at a time.

In a further assay the target is T2, human CCR4 (human, UniProt P51679 1-360).
T2 construct: whole, on cells; transiently expressed on HEK293 cells
T2 sequence (looked up): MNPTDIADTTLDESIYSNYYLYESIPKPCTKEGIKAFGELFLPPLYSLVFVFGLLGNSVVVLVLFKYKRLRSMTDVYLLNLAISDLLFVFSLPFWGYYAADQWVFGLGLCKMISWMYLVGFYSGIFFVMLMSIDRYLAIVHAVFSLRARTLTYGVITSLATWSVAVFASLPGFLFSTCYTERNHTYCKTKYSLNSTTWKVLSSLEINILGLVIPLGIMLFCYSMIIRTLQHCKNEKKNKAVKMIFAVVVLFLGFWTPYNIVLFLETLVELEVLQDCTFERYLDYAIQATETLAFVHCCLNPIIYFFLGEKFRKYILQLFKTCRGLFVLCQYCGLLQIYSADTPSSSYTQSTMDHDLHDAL
The assay can be described thus: flow cytometry, HEK293 with N-term FLAG-tagged human CCR4.
Source text: as §1, §2

The target in a further assay is T3, GST-FcgR3a.F158 (UniProt P08637 17-208, limits assumed).
T3 construct: Captured by anti-GST antibody on ELISA plate; also called FcgR3a.F158 protein; Fcgamma RIIIa F158; not shown: GST tag
The assay can be described thus: ELISA, GST-FcgR3a.F158 captured by anti-GST antibody. The protocol: The binding of fucosylated and afucosylated variants of hu.Ab5.H13L1 and hu.Ab4.H12L3 to both FcgR3a proteins by ELISA was studied. Briefly, an anti-GST antibody was coated on Nunc Maxisorp plates. GST-FcgR3a.V158 and GST-FcgR3a.F158 were captured at 500 ng/mL. Plates were then washed and then serially diluted anti-CCR8 antibodies starting at 100 ug/mL were incubated on the plate for 1 hour at room temperature. Plates were washed and bound antibody was detected by a HRP-conjugated anti-human IgG secondary antibody. Absorbance at 450 nm was measured by a plate reader. The data were fitted using a 4-parameter logistic curve in Softmax Pro.
(In general: In an ELISA, binding on a coated surface is turned into a signal by an enzyme label.)

The target in the next assay is T4, human CCR2 (human, UniProt P41597 1-374).
T4 construct: whole, on cells; transiently expressed on HEK293 cells
Briefly: flow cytometry, HEK293 with N-term FLAG-tagged human CCR2, procedure of FIG. 4. The text has this: (§3) To confirm the selectivity to CCR8, the binding of hu.Ab3.H1L1, hu.Ab4.H1L1, and hu.Ab5.H1L1, as well as the Yoshida humanized anti-human CCR8, murine anti-human CCR8 mAb L263G8 (Biolegend, Commercial Ab) and murine anti-human CCR8 mAb 433H (BD Biosciences, Commercial Ab), were characterized by flow cytometry on HEK293 cells that were transiently transfected with plasmids encoding for FLAG-tagged other related human GPCRs (CCR2-5, CXCR4, ACKR2, and ACKR4). Cell surface expression of each GPCR was confirmed by staining with an anti-FLAG antibody control. In particular, HEK293 cells were transfected with N-term FLAG-tagged human CCR2, CCR3, CCR4, CCR5, CXCR4, ACKR2, ACKR4, hCCR8 constructs, or with a Mock construct using transIT X2 (reagent:DNA=3:1) for 24 hours, and surface stained with various anti-hCCR8 monoclonal antibodies at 5 ug/ml, or rabbit anti-Flag pAb (Sigma) followed by AF647-anti-hIgG or AF647-anti-RbIgG respectively. Antibodies hu.Ab4.H1L1, and hu.Ab5.H1L1, only stained the hCCR8-containing cells, confirming their specificity to hCCR8. […] Thus, the CCR8 selective hu.Ab4.H1L1 and hu.Ab5.H1L1 antibodies with the best ADCC activities were carried forward.
(§4) To reconfirm that the Ab4 and Ab5 variants remained selective to CCR8 compared to the corresponding HIL1 variants, binding was analyzed by flow cytometry following the procedure as described for FIG. 4A and FIG. 4B. […]

A further assay concerns the target T5, human ACKR4 (human, UniProt Q9NPB9 1-350).
T5 construct: whole, on cells; transiently expressed on HEK293 cells
T5 sequence (looked up): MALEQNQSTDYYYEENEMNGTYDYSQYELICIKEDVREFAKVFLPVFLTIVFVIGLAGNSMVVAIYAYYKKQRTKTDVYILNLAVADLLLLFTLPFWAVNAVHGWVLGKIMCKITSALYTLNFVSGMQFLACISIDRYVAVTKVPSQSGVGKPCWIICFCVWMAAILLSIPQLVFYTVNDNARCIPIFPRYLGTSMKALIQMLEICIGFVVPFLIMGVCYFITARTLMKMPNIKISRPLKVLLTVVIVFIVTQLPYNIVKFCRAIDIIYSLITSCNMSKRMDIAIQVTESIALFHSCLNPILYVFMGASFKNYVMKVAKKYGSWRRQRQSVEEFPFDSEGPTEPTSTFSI
Briefly: flow cytometry, HEK293 with N-term FLAG-tagged human ACKR4, procedure of FIG. 4.
Source text: as §3, §4

Another assay concerns the target T6, hCCR8 D6A (human, UniProt P51685 1-355).
T6 construct: alanine point mutant on transfected HEK 293 cells
Briefly: flow cytometry, HEK293 transfected with hCCR8 D6A with C-terminal FLAG.

T3 sequence (P08637 17-208 limits assumed): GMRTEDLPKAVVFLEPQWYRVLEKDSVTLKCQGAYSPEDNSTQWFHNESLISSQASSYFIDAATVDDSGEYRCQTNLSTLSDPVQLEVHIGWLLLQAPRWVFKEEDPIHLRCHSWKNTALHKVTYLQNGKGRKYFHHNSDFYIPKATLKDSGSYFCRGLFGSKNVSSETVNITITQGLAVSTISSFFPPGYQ
T4 sequence (P41597 whole entry): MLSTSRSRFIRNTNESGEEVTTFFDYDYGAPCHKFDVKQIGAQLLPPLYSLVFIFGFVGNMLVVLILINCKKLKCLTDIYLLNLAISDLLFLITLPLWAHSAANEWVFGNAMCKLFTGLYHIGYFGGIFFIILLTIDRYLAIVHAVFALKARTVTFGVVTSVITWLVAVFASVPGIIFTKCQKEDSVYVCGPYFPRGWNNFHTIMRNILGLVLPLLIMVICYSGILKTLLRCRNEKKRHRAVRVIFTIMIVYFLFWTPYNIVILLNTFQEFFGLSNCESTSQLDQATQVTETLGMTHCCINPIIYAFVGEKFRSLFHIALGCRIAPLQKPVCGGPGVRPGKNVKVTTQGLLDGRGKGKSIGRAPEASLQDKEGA

B1: hu.Ab4.H1L1 (antibody, human IgG1, kappa)
heavy: not shown
light: DYQMTQSPSSLSASVGDRVTITCQASQSISSYLSWYQQKPGKRPKLLIYKASTLASGVPSRFSGSGSGTDFTLTISSLQPEDFATYYCQQGYTSSNIDNIFGGGTKVEIKRTVAAPSVFIFPPSDEQLKSGTASVVCLLNNFYPREAKVQWKVDNALQSGNSQESVTEQDSKDSTYSLSSTLTLSKADYEKHKVYACEVTHQGLSSPVTKSFNRGEC
notes: also called hu.Ab4.H1Ll
B1: the binding result with human CCR3 and with human CCR4 was “no binding (tested: 5 ug/ml)” throughout.

B2: hu.Ab4.H12L3 (antibody, human IgG1, kappa)
heavy: not shown
light: B1 light with R43A
notes: fucosylated human IgG1; also called huCCR8-Ab4.H12L3.hIgG1; Ab4 variant
B2: in the assay with GST-FcgR3a.F158, the EC50 is 3.74 µg/mL. Further, the binding result with human CCR2 and with human ACKR4 was “no binding (tested: 5 ug/ml)” throughout.

B3: hu.Ab5.H1L1 (antibody, human IgG1, kappa)
heavy: not shown
light: DIQVTQSPSSLSASVGDRVTITCQASENIANALAWYQQKPGKPPKFLIYGASNLASGVPSRFSGSGSGTDFTFTISSLQPEDIATYYCQQAYYGNSFVEGTFGGGTKVEIKRTVAAPSVFIFPPSDEQLKSGTASVVCLLNNFYPREAKVQWKVDNALQSGNSQESVTEQDSKDSTYSLSSTLTLSKADYEKHKVYACEVTHQGLSSPVTKSFNRGEC
With B3, the binding result in the assay with human CCR3 and with human CCR4 was “no binding (tested: 5 ug/ml)” throughout.

B4: hu.Ab5.H13L1 (antibody, human IgG1, kappa)
heavy: not shown
light: B3 light
notes: fucosylated human IgG1; also called Ab5 variant
Regarding B4, the EC50 with GST-FcgR3a.F158 turned out to be 4.11 µg/mL. For the same molecule, the binding result is on record as “no binding (tested: 0.02 ug/ml)” with hCCR8 D6A, “no binding (tested: 5 ug/ml)” in the assay with human CCR2 and “no binding (tested: 5 ug/ml)” with human ACKR4.

The values above are taken from US20230049152A1 (Genentech, published 2023).
